“And” between values parts separate entries of the source, which are not always exact repeats. Identical values can stand only once.

The target of the assay is S protein of infectious SARS-CoV-2 strain 2019 n-CoV/USA_WA1/2020 (SARS-CoV-2, UniProt P0DTC2 14-1273). The assay can be described thus: cell-based or functional assay.

B1: murine/human chimeric mAb Ab-1 (2B04) (antibody, V domains shown)
VH: QVQLKQSGPGLVAPSQSLSITCTVSGFSLINYAISWVRQPPGKGLEWLGVIWTGGGTNYNSALKSRLSISKDNSKSQVFLKMNSLQTDDTARYYCARKDYYGRYYGMDYWGQGTSVTVSS
VL: QAVVTQESALTTSPGETVTLTCRSSTGAVTTSNYANWVQEKPDHLFTGLIGGTNNRAPGVPARFSGSLIGDKAALTITGAQTEDEAIYFCALWYNNHWVFGGGTKLTVL
For the molecule B1, the “IC50, focus reduction neutralization test (FRNT) on Vero E6 cells” value came to 1.46 ng/mL; the “IC50, neutralization of infectious SARS-CoV-2” value was < 2 ng/mL and < 500 ng/mL.

B2: Hu-Ab-1 (Hu-2B04) (antibody, V domains shown)
VH: EVQLQESGPGLVKPSETLSLTCTVSGFSLINYAISWVRQPAGKGLEWLGVIWTGGGTNYNAALKSRLSISKDNSKSQVSLKMNSVTAADTAVYYCARKDYYGRYYGMDYWGQGTTVTVSS
VL: QAVVTQEPSLTVSPGGTVTLTCRSSTGAVTTSNYANWVQEKPGQAFRGLIGGTNNRAPGVPARFSGSLLGDKAALTLSGAQPEDEAEYFCALWYNNHWVFGGGTKLTVLG
Consider B2, for which the “IC50, live virus neutralization assay” value was 1.65 ng/mL.

B3: 2H04 (antibody, V domains shown)
VH: EVQLQQSGAELVKPGASVKMSCKASGYTFTSYWITWVKQRPGQGLEWIGDIYPGSGSTKYNEKFRSEATLTVDTSSTTAYMQLSSLTSEDSAVYYCARWDFYGSRTFDYWGQGTTLTVSS
VL: DIVLTQSPAILSVSPGERVSFSCRASQNIGTIIHWYQQRTNGSPRLLIKYASESVSGIPSRFSGSGSGTDFTLSINSVESEDIADYYCQQSSSWPLTFGAGTKLELK
With B3, the “IC50, neutralization of infectious SARS-CoV-2” value was under 500 ng/mL.

Values taken from patent US20220017604A1 (WASHINGTON UNIVERSITY, published 2022).
